# In the supplement of paper PMC9170038:
# Tested on: K4 kissing-loop RNA reporter
# Experiment: apparent KD of K4 kissing-loop reporter; higher = weaker reporter binding
# Conditions: Eterna round: R107; input ligand: none
# Procedure: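 RNA-MaP round R107: designed RNA switches with theophylline, tryptophan, arginine or FMN aptamers are transcribed on-chip within common flanks. They are titrated with a labelled K4 kissing-loop RNA reporter in RNA-MaP buffer (100 mM Tris pH 7.5, 80 mM KCl, 4 mM MgCl2), without ligand or with the indicated ligand. Median apparent KD per design.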
# 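Further: bound reporter read as fluorescence of individual clusters on recovered sequencing chips by microscopy, with normalized cluster intensities fitted with a binding model.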
row,Sequence,apparent KD of K4 kissing-loop reporter [nM]
1,UGUACCGAGUUAGGAUAUGUCGUCGAAAGACGAAAUGGAGUGAUGUUCCUUAAACUGCGAAAGCAGACAGAAGGGACUUGGUACU [FmnBS 29 U11],474
2,AGAAACUUGUAUGUCGGGUGUGCGCGCGAUACCAGCCAAAUGGAUGGCCCUUGGCAGCGCAGCGAGUGAUGUUCGCCCGCUUGAC [Exclusion Theophylline A GF 22],302
3,AGCAGUCCAGGAUCGAAAGAUCCUGAGGUCCGAGGACCGGUACGGCCGCCACUCGGAGUGAUGUUCCGAAGACUGCAAAAUAAAA [#SwitchBubble 5],108
4,GAGAUAGAGGCGGCCGCCACUAGUGAUGUUGGUGAUGUUAGAUAGAGAAUAGAACGGGUACUCCCUAGGACCGGGCCAGAUGGAG [#04 K4 Tryptophan B Exclusion],58.5
5,AGUGCACUGGCAGGAUAUGUACAGUGAUGUUGUGUAUGUCAGCAAGUCAAAGACUUGCUCUUCUGUGCAGAAGGGCCUGUGUACA [#05 K4 FMN B Exclusion],668
6,AGCUCAGAGUGACUCGAUAAGAGUCACAAACGAGGACCGGUACGGCCGCCACUCGAAAUAACGAGAGUGAUGUUUUCGCUGAGCA [FiskerMod 6 - Jieux - Same State Tryptophan A],857
7,UAAACCAAAUUACGUCACCUUGUCCAAUCUAAGGAUAUGUGAUUCCACAGAAGGUAGCCACGGGAGUGAUGUUCGCGUUAAGGCG [theeternabot_exclusion_KL_FMN_A_31],465
8,GUGCAGUGAUGUUGCACGAGGAAAGACGAUACCAGCCGUAAAUAAGGCCCUUGGCAGCGUGGACUAGCAUAAAGUAUGCUAGCCU [Isenaonle],123
9,CGUACGGUUUCUUUCUUUCCGUACGAGUGCCGAGGACCGGUACGGCCGCCACUCGCUACAGCCUAGUGAUGUUAGGAACGUGUUA,81.8
10,CCGAAGAACCAGUGAUGUUGGUUGACUAGACAGGAUAUGAGCAACAUCAGAAGGGUCUGGCUUCGGGAGUAGGUCGCGCUGACCC [Diarrebi],624
11,GGCGGCUGCGCGCAAGCGCAGCCGGCCGAUACCAGCGCGACGGCGCGCCCUUGGCAGCGGCGCCGAGUGAUGUUCGGCCUGCCGG [#2 Same State - Theophylline A Attempt #19 (HarryS)],738
12,GCGCGUCAUGUCAGCGGUGACACUGUCGAUACCAGCGCCGCAAGGCGCCCUUGGCAGCGACGUGCUGGAGUGAUGUUCCAGCGUC [#2 Exclusion - Theophylline A Attempt #22 (HarryS)],145
13,GGGAGAAGAGCGGCCGCCACUCAGACAGCAGCAGAAUAUAGUGAUGUUAUAUAGGAAAGGCGGAGGAGGACCGGGCUUAAGAGGG [#20 K4 Tryptophan B Same State],278
14,AGAUAGGGCUGAAGGAGCGUCGGAAAAGAAAAGAUGAAAUCCAGUGAUGUUGGAUAAAUCCGACAGGUAGGUCGCAGUUUUAUGA [#01 K4 Arginine B Same State],133
15,GGCAGUGAUGUUGCCUAAGCAACGCAUGCAGAGGAUAUUCGUUCGGGAAGAAGGCUGCAGCGUUCUCUCGCGAGUGAUGUUCGCG [Same State FMN A GF 23],165
16,GCCGUAGAUUGAAGGAGCGCCUUCUUACCAAGAGUGAUGUUCUUUGGUACCAUGUUCAGUAGGCAGGUAGGUCGCAAUCUACGGC,332
17,AGCAUUAUCAGAAGGAGCGUGUAUAAAUCAAUAGUAUUGUAUUCGAGUGAUGUUCGUAAUACACAGGUAGGUCGCUGAUAUUGCA [JR_ExcArginiB_Sub002],170
18,GCCGUACGCAUGGAUACCAGCGUACGUCACCUAGCAGUGAUGUUGCUAUUGCCACGUAAACGCCCUUGGCAGCCAUGCGUACGGC,478
19,CAUACGCAUGGAGGAUAUGAGAUUUCUCAUAUUAUUUAAUAUUCUCAGUGAUGUUGAGAUUUAAACUCAGAAGGCCAUGUGUAUG [Ex FMN B 6],239
20,CUUGUACAUGCCGAGGUAGGUGCGGGUUAGCGAGGACCGGUACGGCCGCCACUCGCCAAGUGAUGUUUGGUCCUUUGGGUCGGCA,562
21,AUUUUUUUAUCAGGAUAUUAGUGAUGGUUUGUUUUGUUAGUGAUGUUGAUAUUUGUUUUAUGUAUUUAAGAAGGGAUUGAGAUGU [seesullin],44.1

# Same assay, conditions: Eterna round: R107; input ligand: theophylline 20 uM
row,Sequence,apparent KD of K4 kissing-loop reporter [nM]
1,UGUAUGUGAUUUGAUACCAGACCAGCUGGUGGUGUAUGAGUGAUGUUCAUGUUGGUUUGGGUCCCUUGGCAGCAAAUCGCAUACU [KL-SSTheoB30],8.88
2,AGUCCACUCUAAAGAGUGGACCUAAGGGAUACCAGUGAUGUUGGUCACCCUUGGCAGCCCAGGGCCCGGGAUAAACCCGGGCCCA [#09 K4 Theophylline A Exclusion],99
3,UUUUGCGCGUACGAUACCAGUAUCUGUAAGAGUGAUGUUCAGCGCUGAAGACAGCAGCGAUACCCUUGGCAGCGUUACAUGCUAG [theeternabot_sameState_KL_Theo_B_22],475
4,AAUUGAGUGACGGCCGCCACUAGAGUGAUUUUUUUGUUUGAGUGAUGUUUUGAUGUUUGAUUUUGUAGGACCGGGUUGAGUGAUG [qqxzmullin],528
5,UGUAUGGACUGAAGGAGCGGUAGAUAAACUGAGUGAUGUUCGGCAGAUAAAGGCGCAAGCCACCAGGUAGGUCGCAGUCCAUACU [KL-SSArg B3],408
6,UUAUUGAGCGUUUGUGAGAAGGCGUUCUUCAAGGAUAUCGACGUAACGAGAAGGUGAUUCGUUCCGAGUGAUGUUCGGUACGGGC [theeternabot_sameState_KL_FMN_A_4],240
7,UGGACGAAUAUCGAUAAGAUAUUCUGGGAUACCAGUGACGAAAGUCACCCUUGGCAGCUCAACUGCCAGUGAUGUUGGUAGUCCA [Astros-Elo-mod#3],162
8,AGACUACCACACUGUCAAUAGACAGUGAAUUAGGAUAUGCUGAUAAGCAGAAGGAGUGAUGUUCCGAGGUAGUCAAUAAAAUAAU [FmnAX 13 U30+G66],283
9,ACUCCGAGUGAUGUUAAGAGAUUCUCUGUUAAGGAUAUUUUGCGCAAAAGAAGGUAACCCGGUUUUCGUAAUCUGUUAAUGCGGA [theeternabot_exclusion_KL_FMN_A_38],532
10,UCUCAAGCACAGUGAUGUUGUGCUUGGGAAGGAGCGCGUGGGAACGCAGGUAGGUCGCCCGGUAAAUCGCGUCAAUGCUAGAGGC [Arg A Ex t5],100
11,UUCUACGAGUGAUGUUCGUAGUGUAAUCGCUAGGAUAUCGUUUUUUCGAGAAGGAGCGUCGAAGUGAUACGAAAGUAUCGCUUCG [FMN A 13],284
12,UGUCAUUGGUCGGCCGCCACUAGGACCGGGACUUCUCUAGUGAUGUUAGUCUGGUCGGCCGCCACUAGGACCGGGACCGAUGACU [KL-SSTryp-B14 #DoubleAptamer],327
13,AACAGCAAUGCGGCCGCCACUUCGAGUUCAGUGAUGUUGAAAGAAUUAAAUAAAGAUCCCAAGAGGAGGACCGGGCAGUGCUGUU [Default title],621
14,GUAGUUGCGCAAGGAUAUUAGUUAAGUGAUGUUUGAUUCGGUAUUGUUUACGUACACUGACCCGAUUAAGAAGGUGCGGGCAGCG [theeternabot_exclusion_KL_FMN_B_50],343
15,AAAUUUAUAUUAGAUACCAGCAAAUUGAAAGUUUAUUAUGACAAGAGUGAUGUUCUUGUAUGCCCUUGGCAGCUGGUAUGGGUUU [KL-XTheo-B26],111
16,AAAUAAAGCAGUCACCCAGUGAUGUUGGAAGGAGCGUGCGAAAGCACAGGUAGGUCGCCGAUAAAGGACAAAGUCCGUGGCUGCA [#SwitchBubble 29 #K4Early],279

row,Sequence,apparent KD of K4 kissing-loop reporter [nM]
1,UGAUAGGACAGAAGGAGCGGGCUAGUCAAAGACUAGCAAACGUUAAUAACAGGAGUGAUGUUCCAGGUAGGUCGCUGUCCUAUCU [ArgBX 25 #SwitchBubble #StaticStem],138
2,UUUCGUAGAAGUGAUACCAGACUUGAAAGUGAUGUUUUCCAAUAAUUUAAAUUUUUAGCUGUCCCUUGGCAGCACAGUUUAUUUA [JR_Nu_ExcTheophyB_Sub026],334
3,GGUGUUGUUUGUGCUGUUUUCCUCGUUUCUCGAGGACCGGUACGGCCGCCACUCGAGUGAUGUUUGGGUAGCGAUCCUUGUUAGU [Bdazzled - #6 Exc. Tryptophan A],272
4,UUAUAUUUCAGUGAUGUUGAAAAUAUAACAGAGGAUAUGCGUUUAAGCAGAAGGCUGAAAUACUAUACUUUAAUCUAUUAAAUUU [JR_Nu_SSFMNA_Sub027],353
5,GGAUAGGAUAGAGGAUAUGGAAAACACAGAAGUGACUUGUUGUGUUUAUCCAUAGGGAGUGAUGUUCCAGAAGGCUGUCCUAUCG [MatMod 22 - Jieux - Exclusion - FMN B],230
6,UGUACCGAGUUAGGAUAUGUCGUCGAAAGACGAAAUGGAGUGAUGUUCCUUAAACUGCGAAAGCAGACAGAAGGGACUUGGUACU [FmnBS 29 U11],493
7,AGAAACUUGUAUGUCGGGUGUGCGCGCGAUACCAGCCAAAUGGAUGGCCCUUGGCAGCGCAGCGAGUGAUGUUCGCCCGCUUGAC [Exclusion Theophylline A GF 22],354
8,AGCAGUCCAGGAUCGAAAGAUCCUGAGGUCCGAGGACCGGUACGGCCGCCACUCGGAGUGAUGUUCCGAAGACUGCAAAAUAAAA [#SwitchBubble 5],135
9,GAGAUAGAGGCGGCCGCCACUAGUGAUGUUGGUGAUGUUAGAUAGAGAAUAGAACGGGUACUCCCUAGGACCGGGCCAGAUGGAG [#04 K4 Tryptophan B Exclusion],49.4
10,AGUGCACUGGCAGGAUAUGUACAGUGAUGUUGUGUAUGUCAGCAAGUCAAAGACUUGCUCUUCUGUGCAGAAGGGCCUGUGUACA [#05 K4 FMN B Exclusion],532
11,AGCUCAGAGUGACUCGAUAAGAGUCACAAACGAGGACCGGUACGGCCGCCACUCGAAAUAACGAGAGUGAUGUUUUCGCUGAGCA [FiskerMod 6 - Jieux - Same State Tryptophan A],660
12,UAAACCAAAUUACGUCACCUUGUCCAAUCUAAGGAUAUGUGAUUCCACAGAAGGUAGCCACGGGAGUGAUGUUCGCGUUAAGGCG [theeternabot_exclusion_KL_FMN_A_31],460
13,GUGCAGUGAUGUUGCACGAGGAAAGACGAUACCAGCCGUAAAUAAGGCCCUUGGCAGCGUGGACUAGCAUAAAGUAUGCUAGCCU [Isenaonle],116
14,CGUACGGUUUCUUUCUUUCCGUACGAGUGCCGAGGACCGGUACGGCCGCCACUCGCUACAGCCUAGUGAUGUUAGGAACGUGUUA,87.3
15,CCGAAGAACCAGUGAUGUUGGUUGACUAGACAGGAUAUGAGCAACAUCAGAAGGGUCUGGCUUCGGGAGUAGGUCGCGCUGACCC [Diarrebi],1260
